{"source": "paper PMC8998557", "about": "“A Novel Family of Winged-Helix Single-Stranded DNA-Binding Proteins from Archaea”", "binders": {"B1": {"name": "D30 (dsDNA)", "DNA 1": "TTTCTACCCTTTGGTGCTAATGCCCATACT", "DNA 2": "AGTATGGGCATTAGCACCAAAGGGTAGAAA"}}, "key": {"Sul7s [1]": {"target": "T1, Sul7s (Sulfolobus islandicus Rey15A, UniProt F0NBY5 1-59)", "T1 sequence": "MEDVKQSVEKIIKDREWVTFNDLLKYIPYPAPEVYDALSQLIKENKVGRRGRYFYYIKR", "assay": "BLI; BLI: 50 mM Tris-Cl pH 7.5, 100 mM NaCl, 1 mM EDTA, 0.02% Tween-20, 30 C; NMR: 20 mM potassium phosphate pH 7.0, 30 mM NaCl, 0.02% NaN3, 298 K", "settings": "protein: recombinant, tags: untagged"}, "Sul7s K58A": {"target": "T2, Sul7s K58A (Sulfolobus islandicus Rey15A, UniProt F0NBY5 1-59, K58A)", "T2 sequence": "T1 sequence with K58A", "assay": "BLI; BLI: 50 mM Tris-Cl pH 7.5, 100 mM NaCl, 1 mM EDTA, 0.02% Tween-20, 30 C; NMR: 20 mM potassium phosphate pH 7.0, 30 mM NaCl, 0.02% NaN3, 298 K", "settings": "protein: recombinant; tags: untagged; label: 5'-biotin"}, "Sul7s T19G": {"target": "T3, Sul7s T19G (Sulfolobus islandicus Rey15A, UniProt F0NBY5 1-59, T19G)", "T3 sequence": "T1 sequence with T19G", "assay": "BLI; BLI: 50 mM Tris-Cl pH 7.5, 100 mM NaCl, 1 mM EDTA, 0.02% Tween-20, 30 C; NMR: 20 mM potassium phosphate pH 7.0, 30 mM NaCl, 0.02% NaN3, 298 K", "settings": "protein: recombinant; tags: untagged; label: 5'-biotin"}, "Sul7s N21A": {"target": "T4, Sul7s N21A (Sulfolobus islandicus Rey15A, UniProt F0NBY5 1-59, N21A)", "T4 sequence": "T1 sequence with N21A", "assay": "BLI; BLI: 50 mM Tris-Cl pH 7.5, 100 mM NaCl, 1 mM EDTA, 0.02% Tween-20, 30 C; NMR: 20 mM potassium phosphate pH 7.0, 30 mM NaCl, 0.02% NaN3, 298 K", "settings": "protein: recombinant; tags: untagged; label: 5'-biotin"}, "Sul7s R15A": {"target": "T5, Sul7s R15A (Sulfolobus islandicus Rey15A, UniProt F0NBY5 1-59, R15A)", "T5 sequence": "T1 sequence with R15A", "assay": "BLI; BLI: 50 mM Tris-Cl pH 7.5, 100 mM NaCl, 1 mM EDTA, 0.02% Tween-20, 30 C; NMR: 20 mM potassium phosphate pH 7.0, 30 mM NaCl, 0.02% NaN3, 298 K", "settings": "protein: recombinant; tags: untagged; label: 5'-biotin"}, "Sul7s K13A": {"target": "T6, Sul7s K13A (Sulfolobus islandicus Rey15A, UniProt F0NBY5 1-59, K13A)", "T6 sequence": "T1 sequence with K13A", "assay": "BLI; BLI: 50 mM Tris-Cl pH 7.5, 100 mM NaCl, 1 mM EDTA, 0.02% Tween-20, 30 C; NMR: 20 mM potassium phosphate pH 7.0, 30 mM NaCl, 0.02% NaN3, 298 K", "settings": "protein: recombinant; tags: untagged; label: 5'-biotin"}, "Sul7s D3A": {"target": "T7, Sul7s D3A (Sulfolobus islandicus Rey15A, UniProt F0NBY5 1-59, D3A)", "T7 sequence": "T1 sequence with D3A", "assay": "BLI; BLI: 50 mM Tris-Cl pH 7.5, 100 mM NaCl, 1 mM EDTA, 0.02% Tween-20, 30 C; NMR: 20 mM potassium phosphate pH 7.0, 30 mM NaCl, 0.02% NaN3, 298 K", "settings": "protein: recombinant; tags: untagged; label: 5'-biotin"}, "Sul7s E33A": {"target": "T8, Sul7s E33A (Sulfolobus islandicus Rey15A, UniProt F0NBY5 1-59, E33A)", "T8 sequence": "T1 sequence with E33A", "assay": "BLI; BLI: 50 mM Tris-Cl pH 7.5, 100 mM NaCl, 1 mM EDTA, 0.02% Tween-20, 30 C; NMR: 20 mM potassium phosphate pH 7.0, 30 mM NaCl, 0.02% NaN3, 298 K", "settings": "protein: recombinant; tags: untagged; label: 5'-biotin"}, "Sul7s W17A": {"target": "T9, Sul7s W17A (Sulfolobus islandicus Rey15A, UniProt F0NBY5 1-59, W17A)", "T9 sequence": "T1 sequence with W17A", "assay": "BLI; BLI: 50 mM Tris-Cl pH 7.5, 100 mM NaCl, 1 mM EDTA, 0.02% Tween-20, 30 C; NMR: 20 mM potassium phosphate pH 7.0, 30 mM NaCl, 0.02% NaN3, 298 K", "settings": "protein: recombinant; tags: untagged; label: 5'-biotin"}, "Sul7s Y56A": {"target": "T10, Sul7s Y56A (Sulfolobus islandicus Rey15A, UniProt F0NBY5 1-59, Y56A)", "T10 sequence": "T1 sequence with Y56A", "assay": "BLI; BLI: 50 mM Tris-Cl pH 7.5, 100 mM NaCl, 1 mM EDTA, 0.02% Tween-20, 30 C; NMR: 20 mM potassium phosphate pH 7.0, 30 mM NaCl, 0.02% NaN3, 298 K", "settings": "protein: recombinant; tags: untagged; label: 5'-biotin"}, "Sul7s K43A": {"target": "T11, Sul7s K43A (Sulfolobus islandicus Rey15A, UniProt F0NBY5 1-59, K43A)", "T11 sequence": "T1 sequence with K43A", "assay": "BLI; BLI: 50 mM Tris-Cl pH 7.5, 100 mM NaCl, 1 mM EDTA, 0.02% Tween-20, 30 C; NMR: 20 mM potassium phosphate pH 7.0, 30 mM NaCl, 0.02% NaN3, 298 K", "settings": "protein: recombinant; tags: untagged; label: 5'-biotin"}, "Sul7s D36A": {"target": "T12, Sul7s D36A (Sulfolobus islandicus Rey15A, UniProt F0NBY5 1-59, D36A)", "T12 sequence": "T1 sequence with D36A", "assay": "BLI; text calls decrease marginal, in conflict with table value; BLI: 50 mM Tris-Cl pH 7.5, 100 mM NaCl, 1 mM EDTA, 0.02% Tween-20, 30 C; NMR: 20 mM potassium phosphate pH 7.0, 30 mM NaCl, 0.02% NaN3, 298 K", "settings": "protein: recombinant; tags: untagged; label: 5'-biotin"}, "Sul7s R49A": {"target": "T13, Sul7s R49A (Sulfolobus islandicus Rey15A, UniProt F0NBY5 1-59, R49A)", "T13 sequence": "T1 sequence with R49A", "assay": "BLI; barely detected up to 80 uM protein; BLI: 50 mM Tris-Cl pH 7.5, 100 mM NaCl, 1 mM EDTA, 0.02% Tween-20, 30 C; NMR: 20 mM potassium phosphate pH 7.0, 30 mM NaCl, 0.02% NaN3, 298 K", "settings": "protein: recombinant; tags: untagged; label: 5'-biotin"}, "Sul7s R59A": {"target": "T14, Sul7s R59A (Sulfolobus islandicus Rey15A, UniProt F0NBY5 1-59, R59A)", "T14 sequence": "T1 sequence with R59A", "assay": "BLI; barely detected up to 80 uM protein; BLI: 50 mM Tris-Cl pH 7.5, 100 mM NaCl, 1 mM EDTA, 0.02% Tween-20, 30 C; NMR: 20 mM potassium phosphate pH 7.0, 30 mM NaCl, 0.02% NaN3, 298 K", "settings": "protein: recombinant; tags: untagged; label: 5'-biotin"}, "Sul7s R52A": {"target": "T15, Sul7s R52A (Sulfolobus islandicus Rey15A, UniProt F0NBY5 1-59, R52A)", "T15 sequence": "T1 sequence with R52A", "assay": "BLI; barely detected up to 80 uM protein; BLI: 50 mM Tris-Cl pH 7.5, 100 mM NaCl, 1 mM EDTA, 0.02% Tween-20, 30 C; NMR: 20 mM potassium phosphate pH 7.0, 30 mM NaCl, 0.02% NaN3, 298 K", "settings": "protein: recombinant; tags: untagged; label: 5'-biotin"}, "Sul7s [2]": {"target": "T1, Sul7s", "assay": "NMR; 0.7 mM 15N/13C protein, HSQC titration; BLI: 50 mM Tris-Cl pH 7.5, 100 mM NaCl, 1 mM EDTA, 0.02% Tween-20, 30 C; NMR: 20 mM potassium phosphate pH 7.0, 30 mM NaCl, 0.02% NaN3, 298 K", "settings": "protein: recombinant; tags: untagged"}}, "note": "Residue numbers refer to the chain shown, from its start.", "data": [{"binder": "CTGGGGGCTGGGGGCTGGGGGCTGGGGGCT (ssDNA)", "note": "[G-rich30]", "values": [{"measurement": "Kd", "setting": "Sul7s [1]; label: 5'-biotin", "result": "17.5 ± 4.8", "unit": "µM"}]}, {"binder": "TTTCTACCCTTTGGTGCTAATGCCCATACT (ssDNA)", "note": "[S30 (S30-F)]", "values": [{"measurement": "Kd", "setting": "Sul7s K58A", "result": 26.9, "unit": "µM"}, {"measurement": "Kd", "setting": "Sul7s T19G", "result": 14.1, "unit": "µM"}, {"measurement": "Kd", "setting": "Sul7s N21A", "result": 8.92, "unit": "µM"}, {"measurement": "Kd", "setting": "Sul7s [1]; label: 5'-biotin", "result": "5.62 ± 0.95", "unit": "µM"}, {"measurement": "Kd", "setting": "Sul7s R15A", "result": 4.67, "unit": "µM"}, {"measurement": "Kd", "setting": "Sul7s K13A", "result": 30.4, "unit": "µM"}, {"measurement": "Kd", "setting": "Sul7s D3A", "result": 6.01, "unit": "µM"}, {"measurement": "Kd", "setting": "Sul7s E33A", "result": 1.21, "unit": "µM"}, {"measurement": "Kd", "setting": "Sul7s W17A", "result": 10.7, "unit": "µM"}, {"measurement": "Kd", "setting": "Sul7s Y56A", "result": 15.6, "unit": "µM"}, {"measurement": "Kd", "setting": "Sul7s K43A", "result": 27.9, "unit": "µM"}, {"measurement": "Kd", "setting": "Sul7s D36A", "result": 88.3, "unit": "µM"}, {"measurement": "binding result", "setting": "Sul7s R49A", "result": "no binding"}, {"measurement": "binding result", "setting": "Sul7s R59A", "result": "no binding"}, {"measurement": "binding result", "setting": "Sul7s R52A", "result": "no binding"}]}, {"binder": "TTTTTTTTTTTTTTTTTTTTTTTTTTTTTT (ssDNA)", "note": "[T30]", "values": [{"measurement": "Kd", "setting": "Sul7s [1]; label: 5'-biotin", "result": "1.19 ± 0.3", "unit": "µM"}]}, {"binder": "GTAGTCAGACACAGTAGTTC (ssDNA)", "note": "[S20-F]", "values": [{"measurement": "binding result", "setting": "Sul7s [2]", "result": "binds"}]}, {"binder": "B1", "values": [{"measurement": "Kd", "setting": "Sul7s [1]; label: 5'-biotin on strand 1, blunt", "result": "76.8 ± 16.9", "unit": "µM"}]}]}
